The source of these data is a protein production outcome set (Wang et al. 2014).

The series in a line: label from the status in PepcDB records.
Consider “MRDRVRWRVLSLPPLAQWREVMAALEVGPEAALAYWHRGFRRKEDLDPPLALLPLKGLREAAALLEEALRQGKRIRVHGDYDADGLTGTAILVRGLAALGADVHPFIPHRLEEGYGVLMERVPEHLEASDLFLTVDCGITNHAELRELLENGVEVIVTDHHTPGKTPPPGLVVHPALTPDLKEKPTGAGVAFLLLWALHERLGLPPPLEYADLAAVGTIADVAPLWGWNRALVKEGLARIPASSWVGLRLLAEAVGYTGKAVEVAFRIAPRINAASRLGEAEKALRLLLTDDAAEAQALVGELHRLNARRQTLEEAMLRKLLPQADPEAKAIVLLDPEGHPGVMGIVASRILEATLRPVFLVAQGKGTVRSLAPISAVEALRSAEDLLLRYGGHKEAAGFAMDEALFPAFKARVEAYAARFPDPVREVALLDLLPEPGLLPQVFRELALLEPYGEGNPEPLFLLFGAPEEARRLGEGRHLAFRLKGVRVLAWKQGDLALPPEVEVAGLLSENAWNGHLAYEVQAVDLRKPEALEGGIAPFAYPLPLLEALARARLGEGVYVPEDNPEGLDYARKAGFRLLPPEEAGLWLGLPPRPVLGRRVEVALGREARARLSAPPVLHTPEARLKALVHRRLLFAYERRHPGLFSEALLAYWEVNRVQEPAGSP”, for which the protein production result is “not failed”.

“MSLSYVKEGLAVLEDGRLIYITPEEFRQLLQGDAILAVYSKTCPHCHRDWPQLIQASKEVDVPIVMFIWGSLIGERELSAARLEMNKAGVEGTPTLVFYKEGRIVDKLVGATPWSLKVEKAREIYGGEGHHHHHH”: the protein production entry is listed as “not failed”.

On to “MGILDEIMNQEHFDIKTSLDYINEYEKLLPFDSEIHTARAVTYFFGEEYKLAEEHIRKALKFRPNNYDNNFYLANILIAMGEYPDAIKSAVLSVTFLKHFAKIQGYDYINDKLFYYNEQVKTLIEYCIENIKDTNVLEDLKRFFGFIELSIAKFPVCFYGDKWNILVGEYLNKDLNSEYNDYICFYSDTYNNMLSDFQKKLYTVINNSEISSICPIESFKSMTAKEFSLDNGKYIIPIATTEYNQVIDFKIKNTNFKSQQVDPPGFFKYYRVNNGISLNSDKDVIIGKPIKLGFKEKNKKLVFTIFIDALSQKYLLETKYKSMPYTKAFFDKGIIFENCYSAGEWTYPSLTSVVTGLYTTNHHFLHSSAGYKYPDDIDLFSEIMKKNEYFTANISGTYALAPYSSGFRGFDRTVFKNSLGFSDSVIINDAIKHIESFKETNQFVFMSLSDVHKILDDIENYSVNYDIVNQTSLDIETSLSKRSSFVSAWQKYDEEAIKKYDVALRELDRQLKGIYDYILQNYSEEEYLISIFSDHGASFLGKDDFLLKSNITNSVLMVRGSGSASNGNTEYISNMDLIPIILKLANIEHDLSKYDCVLPKTLGGKGREFTYSESIYPGQTYKAMVNNDKYCYILETKGITDIDGTINFDEYSDSVFDKKEDKEVKDNDILEYYREIVYNHIKRNIKY”, for which the protein production result is given as “failed”.

“MKFRIDTFTLLLLGAIVLASFLPVTGQAAEALGTAGTIAVALLFFFHGAALSRQQIIDGATHWRLHILITALTFVFFPLAVLPVNELNTIAPEWMPKDLGLGFLYLGVLPSAVSSSIAYTAMARGNVPAAICSAAASNVFGMMLTPFLLLLLVSTSGAGEFSVAEALKDIVLQLLLPFAVGHALRPWLGGYLSRNESLMARYDQCVIWIIVYSAFSHSVVSGLWQNLPVQAIVLAILICFGLLGLFMLIARLMVRKLGFSLEDEAAVVFCGSKKSLASGLPMAKVLFSGHPGFGMIVLPIMCYNQIQVIVGAILAQKYREKIQQAKSAPAHASENGCQNR”: the protein production entry is “failed”.

Take “MFFKQFYDKHLSQASYLIGCQKTGEAMIIDPIRDLSSYIRVADEEGLTITHAAETHIHADFASGIRDVAIKLNANIYVSGESDDTLGYKNMPNHTHFVQHNDDIYVGNIKLKVLHTPGHTPESISFLLTDEGAGAQVPMGLFSGDFIFVGDIGRPDLLEKAVKVEGSSEIGAKQMFKSIESIKDLPDYIQIWPGHGAGSPCGKSLGAIPTSTLGYEKQTNWAFSENNEATFIDKLISDQPAPPHHFAQMKKINQFGMNLYQPYTVYPATNTNRLTFDLRSKEAYHGGHIEGTINIPYDKNFINQIGWYLNYDQEINLIGDYHLVSKATHTLQLIGYDDIAGYQLPQSKIQTRSIHSEDITGNESHILDVRNDNEWNNGHLSQAVHVPHGKLLETDLPFNKNDVIYVHCQSGIRSSIAIGILEHKGYHNIINVNEGYKDIQLS”: the protein production entry is “not failed”.

“MSHLLEKAAARGDLAALERLLDAGADLEWQHKGTGRTALLAATIAGHQPAVALLLARGANVQQPCKALGYSPLAWAASHGDTALAELLIAHGAALEQASPELQRTALMNAAQAGHEAMVALLLKAGANPSPVDFQQRNAWSLAEENGHAQVMQQLEQAGTGAPPAPAPAPSLPWPPLVPGTDSSADPVTQVRAYTLALYAWEQRGNALGHEALDAAFWAEPQQLLERFCTLRPRAYPRASYGYPTTHAEADELLGCQLLKPAQAEVLVRDPASRALCYEHRFVVKRVAGQWRIDSVKRRLAGTQKWANAIL”: the protein production entry was “failed”.

Regarding “EHIVPSNQQQIVRVLRTPGNNLHEVETAQGQRFLVSMPSKYRKNIWIKRGDFLIVDPIEEGEKVKAEISFVLCKDHVRSLQKEGFWPEAFSEVAEKHN”, the protein production result was “not failed”.

In the case of “TEQGLQKVLQRLVQTMQRDALVRQTTNQLRESLQVDRVVLYYFYWQWHGQVTFEALSSEEFSILGSTGADECFNDEYAALYLAGRTKAIADIESEPITTCHRDFLRTLQVRANLVVPVLVPKGLWGLLVAHHCQGTHDWKESDIELMQAGAKTLA”, the protein production entry is recorded as “failed”.

As for “MTSTCTICERIKLIQAHQNPYFVYELTTGYVVLADSQYFEGYTLFLAKHHVTELHHLPAHEKLRYLEEMSIVQEACAQAFHADKMNIELLGNGDAHVHWHLFPRHNGDTPNPGPVWWTPLETIYGDDVSLDIPRLSRLKRTLSVAIEATLNAREAELQALEALTRPASHRIDSN”, the protein production entry is “failed”.

Regarding “MKFLKYFTFELRLRYRNPSQILFVFIFPLFLMFAFSSSFGKSIPHYIENNIASILLYSVLSASLTSLSVQIADHQSGKIYQLFVQRGIKKLFYIIAQIVSFMIIIFCSTLVILVVAHYAYDYEFPKLSLLILFYLKLYLYSIPFCLLAMIIGLLAKNTATASAIAMPLMFLSFFFSGMMIPLAQLSGGIRKIADNFFLTQLLSDLNHTLTSNYTVVPNWSRISLSVGLICLLALLVYRRKA”, the protein production entry was “failed”.

Regarding “MKCIPYSVLLKDLEMRNLRELEDLIIEAVYTDIIQGKLDQRNQLLEVDFCIGRDIRKKDINNIVKTLHEWCDGCEAVLLGIEQQVLRANQYKENHNRTQQQVEAEVTNIKKTLKATASSSAQEMEQQLAERECPPHAEQRQPTKKMSKVKGLVSSRH”, the protein production entry is recorded as “not failed”.

“MKRTKKAFVLVLSLSMLASISPQTVLASGGNTDRYEEVHGTQAIVKDAEVHVYTTKNGGTVQLTGSNGIETTFTQGIGYREYKATPADGWRWKGWTYEQLYQGEDLGNRTDYGWGRRYSFSNDGSDWKSPYDGIGQTISVNRLLTTGETVGNKITYNLYADFNPTINATADTGGTIEDSGITEVEYGTNKQYTVTADTGKDIASVTVDGNSVLAETKKDSFTYTFENVTEPHTIHATFTDEIHTVSYEFVSGTAGEALPEEVSNLCPSSSTYTYGTEVTPTQPTSTSVKVSDGVWTFKGYDKENQTVTSDVKFTGTWTFAKNAVTINHIPTITAGDKTITVGDSFDPKKDVTASDKEDGSLTDRIEVINNTVNTSKVGTYTVTYKVTDKDGASVTKSITVTVKEKDKEEQTTVPTKPDNGNSTSTDTKKDASKTGQTVKTGDTSNVLLWSTIAILSLAGVVTVLFIKRRKSHS”: the protein production entry is recorded as “failed”.

For “MHEKTKFRLHSHDVPYGSGSGQQSVTGFPGVVDSNSYWIVKPVPGTTEKQGDAVKSGATIRLQHMKTRKWLHSHLHASPISGNLEVSCFGDDTNSDTGDHWKLIIEGSGKTWKQDQRVRLQHIDTSGYLHSHDKKYQRIAGGQQEVCGIREKKADNIWLAAEGVYLPLNESSK”, the protein production result is “not failed”.

On to “KTIFVIVPTNEEQVAFLEALAKQDELNFDWQNPPTEPGQPVVILIPSDMVEWFLEMLKAKGIPFTVYVEEGGSENLYFQ”, for which the protein production result is on record as “not failed”.

“MVINIRRSRPDEGDKLTAIWCRSVDATHDFLTKAYRKELEEMVRAFLPEAPLWVAVSTEDQPIAFMLLTGDHMDALFVDPDVRGCGVGKLLIEHALSLTPKLTTNVNEQNEQAVGFYQKMGFRVTGRSETDDLGQPYPLLNLMYEQQAEADYD”: the protein production result is reported as “not failed”.
